Holding throughout (assay): cell-based or functional assay
The target in assay [1] is human MC5R (melanocortin 5 receptor) (human) (UniProt P33032).
For assay [2], the target named is human MC3R (melanocortin 3 receptor) (human) (UniProt P41968).
The target of assay [3] is human MC1R (melanocortin 1 receptor) (human) (UniProt Q01726).
Assay [4] concerns the target human wild type MC4R (melanocortin 4 receptor) expressed on HEK293/HEK293T cells (human) (UniProt P32245).

Chain of human wild type MC4R (melanocortin 4 receptor) expressed on HEK293/HEK293T cells (human) (P32245 whole entry): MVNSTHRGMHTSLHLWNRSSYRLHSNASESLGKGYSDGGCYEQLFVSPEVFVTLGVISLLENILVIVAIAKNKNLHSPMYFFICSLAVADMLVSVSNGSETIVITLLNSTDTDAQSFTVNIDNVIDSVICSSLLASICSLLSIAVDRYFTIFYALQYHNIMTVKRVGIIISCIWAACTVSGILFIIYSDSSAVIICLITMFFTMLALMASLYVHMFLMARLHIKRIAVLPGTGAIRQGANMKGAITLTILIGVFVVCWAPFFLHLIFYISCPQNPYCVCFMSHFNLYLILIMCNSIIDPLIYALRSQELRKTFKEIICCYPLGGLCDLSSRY
Chain of human MC5R (melanocortin 5 receptor) (human) (P33032 whole entry): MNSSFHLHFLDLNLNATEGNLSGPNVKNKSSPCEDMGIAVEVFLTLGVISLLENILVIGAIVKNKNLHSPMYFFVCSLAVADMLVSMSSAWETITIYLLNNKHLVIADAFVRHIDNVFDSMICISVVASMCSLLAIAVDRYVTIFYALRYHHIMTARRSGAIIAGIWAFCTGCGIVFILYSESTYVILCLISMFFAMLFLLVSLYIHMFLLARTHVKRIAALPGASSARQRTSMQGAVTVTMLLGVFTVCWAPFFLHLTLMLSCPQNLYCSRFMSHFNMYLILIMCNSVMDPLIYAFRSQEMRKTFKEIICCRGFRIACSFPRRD
Chain of human MC1R (melanocortin 1 receptor) (human) (Q01726 whole entry): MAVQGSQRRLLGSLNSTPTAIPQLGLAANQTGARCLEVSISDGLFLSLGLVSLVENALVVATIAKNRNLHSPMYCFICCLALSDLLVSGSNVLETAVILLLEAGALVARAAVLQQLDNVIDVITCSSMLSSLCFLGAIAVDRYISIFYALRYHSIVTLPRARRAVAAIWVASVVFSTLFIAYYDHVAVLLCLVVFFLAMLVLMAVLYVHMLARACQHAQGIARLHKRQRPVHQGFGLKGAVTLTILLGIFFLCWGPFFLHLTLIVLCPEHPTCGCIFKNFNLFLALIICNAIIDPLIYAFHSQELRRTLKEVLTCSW
Chain of human MC3R (melanocortin 3 receptor) (human) (P41968 whole entry): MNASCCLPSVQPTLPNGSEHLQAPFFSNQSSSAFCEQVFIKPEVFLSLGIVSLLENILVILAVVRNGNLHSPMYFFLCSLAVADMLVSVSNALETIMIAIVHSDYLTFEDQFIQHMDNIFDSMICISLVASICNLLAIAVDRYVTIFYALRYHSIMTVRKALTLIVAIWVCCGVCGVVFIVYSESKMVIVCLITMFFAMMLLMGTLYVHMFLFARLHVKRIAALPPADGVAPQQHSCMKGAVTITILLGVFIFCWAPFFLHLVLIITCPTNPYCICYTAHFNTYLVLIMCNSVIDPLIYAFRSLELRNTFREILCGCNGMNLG

For the substance setmelanotide (peptide), the in vitro cAMP potency EC50 (GloSensor) in assay [1] is 451 nM. This substance also registered an in vitro cAMP potency EC50 (GloSensor) in assay [2] of 2.1 nM. Further, the in vitro cAMP potency EC50 (GloSensor) in assay [3] was found to be 11.5 nM. In assay [4], this substance displayed a Gs ConfoSensor, 1 mM Ca^2+, EC50 of 0.6 nM; a Gs ConfoSensor, No Ca^2+, EC50 of 12 nM; an in vitro cAMP potency EC50 (GloSensor) of 2 nM; a β-arrestin recruitment, 1 mM Ca^2+, EC50 of 1.3 nM. The substance further yielded a β-arrestin recruitment, No Ca^2+, EC50 in assay [4] of 18 nM.

The values above are taken from US20260103529A1, “Amino Acid Sequences Directed Against the Melanocortin 4 Receptor and Polypeptides Comprising the Same for the Treatment of MC4R-Related Diseases and Disorders” (Confo Therapeutics N.V., priority 2022, published 2026).
